Data reported in publication PMC7102982.

Target: Xenopus laevis FANCA, full length (Xenopus laevis)
Assay: cryo-EM structure; single-particle cryo-EM of the purified FANCA-FANCG complex (0.8 mg/ml, 0.003% DDM); four classes: FANCA CTD dimer at 3.35 and 3.46 A, two FANCA-FANCG complexes at 4.59 and 4.84 A

stoichiometry N: 2
Substance: Xenopus laevis FANCA, full length (natural protein)
